According to PMC12789631:

Test system: CCCCC[C@H](O)/C=C/[C@H]1[C@H](O)CC(=O)[C@@H]1C/C=C\CCCC(=O)O
Test: cells, lysate or membranes

prostaglandin transporter PGT (OATP2A1) (Homo sapiens; S346A)
Km: 1.14 µM
